Experiment: Rat pharmacokinetics, IV and SC
Type: in vivo, Sprague Dawley rats
Conditions: for Vd / clearance / half-life / Tmax / bioavailability: Sprague-Dawley, rat, plasma
[1] = rats, IV, compared to PIE12-trimer

| Structure (SMILES) | Vd (iv) [L/kg] | clearance (iv) [mL/min/kg] | half-life (iv) [h] | Tmax (sc) [h] | half-life (sc) [h] | bioavailability (sc) [%] | increase in half-life upon IV or SC dosing (rats, compared to PIE12-trimer) [fold] | reduction of clearance [1] | increase of IV half-life [1] [fold] | extension of apparent half-life upon SC dosing (rats, SC, based on terminal-phase elimination, compared to PIE12-trimer) |
| --- | --- | --- | --- | --- | --- | --- | --- | --- | --- | --- |
| CC(=O)N[C@H](Cc1c[nH]cn1)C(=O)N1CCC[C@@H]1C(=O)N[C@@H]1CSSC[C@H](C(=O)N[C@H](CCC(=O)O)C(=O)N[C@H](CC(C)C)C(=O)NCC(=O)N[C@H](CCCCNC(=O)CCOCCOCCOCCOCCNC(=O)CCOCC(C)(COCCC(=O)NCCOCCOCCOCCOCCC(=O)NCCCC[C@@H](NC(=O)CNC(=O)[C@@H](CC(C)C)NC(=O)[C@@H](CCC(=O)O)NC(=O)[C@H]2CSSC[C@@H](NC(=O)[C@H]3CCCN3C(=O)[C@@H](Cc3c[nH]cn3)NC(C)=O)C(=O)N[C@H](CC(=O)O)C(=O)N[C@H](Cc3ccc(O)cc3)C(=O)N3CCC[C@@H]3C(=O)N[C@H](CCC(=O)O)C(=O)N[C@H](Cc3c[nH]c4ccccc34)C(=O)N[C@H](CCC(N)=O)C(=O)N[C@H](Cc3c[nH]c4ccccc34)C(=O)N[C@H](CC(C)C)C(=O)N2)C(N)=O)COCCC(=O)NCCOCCOCCOCCOCCC(=O)NCCCC[C@@H](NC(=O)CNC(=O)[C@@H](CC(C)C)NC(=O)[C@@H](CCC(=O)O)NC(=O)[C@H]2CSSC[C@@H](NC(=O)[C@H]3CCCN3C(=O)[C@@H](Cc3c[nH]cn3)NC(C)=O)C(=O)N[C@H](CC(=O)O)C(=O)N[C@H](Cc3ccc(O)cc3)C(=O)N3CCC[C@@H]3C(=O)N[C@H](CCC(=O)O)C(=O)N[C@H](Cc3c[nH]c4ccccc34)C(=O)N[C@H](CCC(N)=O)C(=O)N[C@H](Cc3c[nH]c4ccccc34)C(=O)N[C@H](CC(C)C)C(=O)N2)C(N)=O)C(N)=O)NC(=O)[C@@H](CC(C)C)NC(=O)[C@@H](Cc2c[nH]c3ccccc23)NC(=O)[C@@H](CCC(N)=O)NC(=O)[C@@H](Cc2c[nH]c3ccccc23)NC(=O)[C@@H](CCC(=O)O)NC(=O)[C@H]2CCCN2C(=O)[C@@H](Cc2ccc(O)cc2)NC(=O)[C@@H](CC(=O)O)NC1=O [PIE12-trimer] | 0.704 | 13.9 | 0.6 | 0.5 | 0.8 | – | – | – | – | – |
| CCCCCCCCCCCCCCCCSC1CC(=O)N(CCC(=O)NCCOCCOCCOCCOCCOCCOCCOCCOCCOCCOCCOCCOCCOCCOCCOCCOCCOCCOCCOCCOCCOCCOCCOCCOCCC(=O)NC(COCCC(=O)NCCOCCOCCOCCOCCC(=O)NCCCC[C@@H](NC(=O)CNC(=O)[C@@H](CC(C)C)NC(=O)[C@@H](CCC(=O)O)NC(=O)[C@H]2CSSC[C@@H](NC(=O)[C@H]3CCCN3C(=O)[C@@H](Cc3c[nH]cn3)NC(C)=O)C(=O)N[C@H](CC(=O)O)C(=O)N[C@H](Cc3ccc(O)cc3)C(=O)N3CCC[C@@H]3C(=O)N[C@H](CCC(=O)O)C(=O)N[C@H](Cc3c[nH]c4ccccc34)C(=O)N[C@H](CCC(N)=O)C(=O)N[C@H](Cc3c[nH]c4ccccc34)C(=O)N[C@H](CC(C)C)C(=O)N2)C(N)=O)(COCCC(=O)NCCOCCOCCOCCOCCC(=O)NCCCC[C@@H](NC(=O)CNC(=O)[C@@H](CC(C)C)NC(=O)[C@@H](CCC(=O)O)NC(=O)[C@H]2CSSC[C@@H](NC(=O)[C@H]3CCCN3C(=O)[C@@H](Cc3c[nH]cn3)NC(C)=O)C(=O)N[C@H](CC(=O)O)C(=O)N[C@H](Cc3ccc(O)cc3)C(=O)N3CCC[C@@H]3C(=O)N[C@H](CCC(=O)O)C(=O)N[C@H](Cc3c[nH]c4ccccc34)C(=O)N[C@H](CCC(N)=O)C(=O)N[C@H](Cc3c[nH]c4ccccc34)C(=O)N[C@H](CC(C)C)C(=O)N2)C(N)=O)COCCC(=O)NCCOCCOCCOCCOCCC(=O)NCCCC[C@@H](NC(=O)CNC(=O)[C@@H](CC(C)C)NC(=O)[C@@H](CCC(=O)O)NC(=O)[C@H]2CSSC[C@@H](NC(=O)[C@H]3CCCN3C(=O)[C@@H](Cc3c[nH]cn3)NC(C)=O)C(=O)N[C@H](CC(=O)O)C(=O)N[C@H](Cc3ccc(O)cc3)C(=O)N3CCC[C@@H]3C(=O)N[C@H](CCC(=O)O)C(=O)N[C@H](Cc3c[nH]c4ccccc34)C(=O)N[C@H](CCC(N)=O)C(=O)N[C@H](Cc3c[nH]c4ccccc34)C(=O)N[C@H](CC(C)C)C(=O)N2)C(N)=O)C1=O (stereo partly drawn) [C16-PIE12-trimer] | 0.137 | – | 0.9 | 1 | 1.2 | 38 | < 2 | 5-8 fold | – | – |
| CCCCCCCCCCCCCCCCCCSC1CC(=O)N(CCC(=O)NCCOCCOCCOCCOCCOCCOCCOCCOCCOCCOCCOCCOCCOCCOCCOCCOCCOCCOCCOCCOCCOCCOCCOCCOCCC(=O)NC(COCCC(=O)NCCOCCOCCOCCOCCC(=O)NCCCC[C@@H](NC(=O)CNC(=O)[C@@H](CC(C)C)NC(=O)[C@@H](CCC(=O)O)NC(=O)[C@H]2CSSC[C@@H](NC(=O)[C@H]3CCCN3C(=O)[C@@H](Cc3c[nH]cn3)NC(C)=O)C(=O)N[C@H](CC(=O)O)C(=O)N[C@H](Cc3ccc(O)cc3)C(=O)N3CCC[C@@H]3C(=O)N[C@H](CCC(=O)O)C(=O)N[C@H](Cc3c[nH]c4ccccc34)C(=O)N[C@H](CCC(N)=O)C(=O)N[C@H](Cc3c[nH]c4ccccc34)C(=O)N[C@H](CC(C)C)C(=O)N2)C(N)=O)(COCCC(=O)NCCOCCOCCOCCOCCC(=O)NCCCC[C@@H](NC(=O)CNC(=O)[C@@H](CC(C)C)NC(=O)[C@@H](CCC(=O)O)NC(=O)[C@H]2CSSC[C@@H](NC(=O)[C@H]3CCCN3C(=O)[C@@H](Cc3c[nH]cn3)NC(C)=O)C(=O)N[C@H](CC(=O)O)C(=O)N[C@H](Cc3ccc(O)cc3)C(=O)N3CCC[C@@H]3C(=O)N[C@H](CCC(=O)O)C(=O)N[C@H](Cc3c[nH]c4ccccc34)C(=O)N[C@H](CCC(N)=O)C(=O)N[C@H](Cc3c[nH]c4ccccc34)C(=O)N[C@H](CC(C)C)C(=O)N2)C(N)=O)COCCC(=O)NCCOCCOCCOCCOCCC(=O)NCCCC[C@@H](NC(=O)CNC(=O)[C@@H](CC(C)C)NC(=O)[C@@H](CCC(=O)O)NC(=O)[C@H]2CSSC[C@@H](NC(=O)[C@H]3CCCN3C(=O)[C@@H](Cc3c[nH]cn3)NC(C)=O)C(=O)N[C@H](CC(=O)O)C(=O)N[C@H](Cc3ccc(O)cc3)C(=O)N3CCC[C@@H]3C(=O)N[C@H](CCC(=O)O)C(=O)N[C@H](Cc3c[nH]c4ccccc34)C(=O)N[C@H](CCC(N)=O)C(=O)N[C@H](Cc3c[nH]c4ccccc34)C(=O)N[C@H](CC(C)C)C(=O)N2)C(N)=O)C1=O (stereo partly drawn) [C18-PIE12-trimer] | 0.227 | 2.5 | 1.1 | 2 | 1.4 | 94 | < 2 | 5-8 fold | – | – |
| CCCCCCCCCCCCCCCC(=O)N[C@H](CSC1CC(=O)N(CCC(=O)NCCOCCOCCOCCOCCOCCOCCOCCOCCOCCOCCOCCOCCOCCOCCOCCOCCOCCOCCOCCOCCOCCOCCOCCOCCC(=O)NC(COCCC(=O)NCCOCCOCCOCCOCCC(=O)NCCCC[C@@H](NC(=O)CNC(=O)[C@@H](CC(C)C)NC(=O)[C@@H](CCC(=O)O)NC(=O)[C@H]2CSSC[C@@H](NC(=O)[C@H]3CCCN3C(=O)[C@@H](Cc3c[nH]cn3)NC(C)=O)C(=O)N[C@H](CC(=O)O)C(=O)N[C@H](Cc3ccc(O)cc3)C(=O)N3CCC[C@@H]3C(=O)N[C@H](CCC(=O)O)C(=O)N[C@H](Cc3c[nH]c4ccccc34)C(=O)N[C@H](CCC(N)=O)C(=O)N[C@H](Cc3c[nH]c4ccccc34)C(=O)N[C@H](CC(C)C)C(=O)N2)C(N)=O)(COCCC(=O)NCCOCCOCCOCCOCCC(=O)NCCCC[C@@H](NC(=O)CNC(=O)[C@@H](CC(C)C)NC(=O)[C@@H](CCC(=O)O)NC(=O)[C@H]2CSSC[C@@H](NC(=O)[C@H]3CCCN3C(=O)[C@@H](Cc3c[nH]cn3)NC(C)=O)C(=O)N[C@H](CC(=O)O)C(=O)N[C@H](Cc3ccc(O)cc3)C(=O)N3CCC[C@@H]3C(=O)N[C@H](CCC(=O)O)C(=O)N[C@H](Cc3c[nH]c4ccccc34)C(=O)N[C@H](CCC(N)=O)C(=O)N[C@H](Cc3c[nH]c4ccccc34)C(=O)N[C@H](CC(C)C)C(=O)N2)C(N)=O)COCCC(=O)NCCOCCOCCOCCOCCC(=O)NCCCC[C@@H](NC(=O)CNC(=O)[C@@H](CC(C)C)NC(=O)[C@@H](CCC(=O)O)NC(=O)[C@H]2CSSC[C@@H](NC(=O)[C@H]3CCCN3C(=O)[C@@H](Cc3c[nH]cn3)NC(C)=O)C(=O)N[C@H](CC(=O)O)C(=O)N[C@H](Cc3ccc(O)cc3)C(=O)N3CCC[C@@H]3C(=O)N[C@H](CCC(=O)O)C(=O)N[C@H](Cc3c[nH]c4ccccc34)C(=O)N[C@H](CCC(N)=O)C(=O)N[C@H](Cc3c[nH]c4ccccc34)C(=O)N[C@H](CC(C)C)C(=O)N2)C(N)=O)C1=O)C(=O)O (stereo partly drawn) [Palm-PIE12-trimer] | 0.144 | – | 1.8 | 1 | 2.2 | – | – | 14-18 fold | 3 | ~ 3 fold |
